Source: patent publication US10004800

Assays:
C.CH505 (HIV-1) = assay: SPR
B.63521 (HIV-1) = assay: SPR

Row | Substance | Kd (C.CH505 (HIV-1)) [nM] | Kd (B.63521 (HIV-1)) [nM]
1 | CH103 | 20 | 2.4
2 | CH104 | 8.9 | 7.1
3 | CH105 | 7.4 | 7
4 | CH106 | 5.8 | 5.1
